Measurements taken from FireProtDB (doi:10.1110/ps.0237703).

Conditions: pH 8, Thermal, CD, Bis-Tris propane ammonium acetate 0.05 M 0.05 M, reversible: No, whole UniProt chain shown

B1: wild type, Q8NJZ1 (protein)
chain: MKANIVILSLFAPLAAVAQTLCGQYSSNTQGGYIFNNNMWGMGSGSGSQCTYVDKVWAEGVAWHTDWSWSGGDNNVKSYPYSGRELGTKRIVSSIKSISSGADWDYTGSNLRANAAYDIFTSANPNHATSSGDYEVMIWLGRYGGVYPIGNSIGTVRAAGRDWALHIGYNGAMKVFSFVAANPVTRFDGEIMDFFYLLRDMQGYPMTSQYLLTLQFGTEPFTGSGAKFNCWYFGATLSYW
Tm (Bionectria ochroleuca): 45.9 °C

B2: wild type, O00095 (protein)
chain: MKFLQVLPALIPAALAQTSCDQWATFTGNGYTVSNNLWGASAGSGFGCVTAVSLSGGASWHADWQWSGGQNNVKSYQNSQIAIPQKRTVNSISSMPTTASWSYSGSNIRANVAYDLFTAANPNHVTYSGDYELMIWLGKYGDIGPIGSSQGTVNVGGQSWTLYYGYNGAMQVYSFVAQTNTTNYSGDVKNFFNYLRDNKGYNAAGQYVLSYQFGTEPFTGSGTLNVASWTASIN
Tm (Hypocrea jecorina): 54.4 °C

B3: wild type, Q8NJY6 (protein)
chain: MKFLQVLPAILPAALAQTSCDQYATFSGNGYIVSNNLWGASAGSGFGCVTSVSLNGAASWHADWQWSGGQNNVKSYQNVQINIPQKRTVNSIGSMPTTASWSYSGSDIRANVAYDLFTAANPNHVTYSGDYELMIWLGKYGDIGPIGSSQGTVNVGGQTWTLYYGYNGAMQVYSFVAQSNTTSYSGDVKNFFNYLRDNKGYNAGGQYVLSYQFGTEPFTGSGTLNVASWTASIN
Tm (Trichoderma citrinoviride): 49.2 °C
